This data set has as its system metastatic castration-resistant prostate cancer. The data set can be described thus: 212Pb SPECT/CT imaging (biodistribution) in a patient with metastatic castration-resistant prostate cancer. It is filed as in vivo, human. Particulars: 60 MBq. As for the experimental part:
To gauge the biodistribution and inform patient tolerability of a ^212Pb radiopharmaceutical comprising an acetamide-based chelator, 60 MBq of ^212Pb-ADVC001 was administered to a person with metastatic castration-resistant prostate cancer. SPECT/CT imaging was performed at 1.5, 5, 20, and 28 h following infusion. […] FIG. 3B depicts sagittal and coronal images at 1.5 h after injection (p.i.). Further details are published in Griffths et al., Journal of Nuclear Medicine, 2024, 65 (7), the entire contents of which are hereby incorporated herein by reference.

We go through one substance from US20260284241A1, “DOSAGE REGIMEN FOR SHORT-LIVED RADIOISOTOPE” (AdvanCell Pty Limited, priority 2023, published 2026).

As to “HO-Glu-CO-Lys[SubA-D-Lys-D-Phe-D-Tyr(3I)-(Pent-^212Pb-DO3AM)]-OH [^212Pb-ADVC001]”, the kidney clearance entry (patient with mCRPC, SPECT/CT (FIG. 3A)) is “rapid kidney clearance”. In addition, the “tumour uptake on 212Pb SPECT/CT images” value (person with mCRPC, SPECT/CT at 1.5, 5, 20 and 28 h following infusion) is “rapid tumour uptake”.
